These are literature values, as cited in publication PMC9780825, “Combining mKate2-Kv1.3 Channel and Atto488-Hongotoxin for the Studies of Peptide Pore Blockers on Living Eukaryotic Cells” (Toxins, 2022).

pKd: −log10 of the molar value.

The target of data set [1] is Kv1.3 (Homo sapiens) (UniProt P22001). Briefly: two-electrode voltage clamp. For orientation: Two-electrode voltage clamp holds a large cell at a set potential and records current.
In data set [2] the target is Kv1.3 (Rattus norvegicus) (UniProt P15384). The experiment in a line: two-electrode voltage clamp.
Kv1.3 (Rattus norvegicus), sequence (P15384 whole entry): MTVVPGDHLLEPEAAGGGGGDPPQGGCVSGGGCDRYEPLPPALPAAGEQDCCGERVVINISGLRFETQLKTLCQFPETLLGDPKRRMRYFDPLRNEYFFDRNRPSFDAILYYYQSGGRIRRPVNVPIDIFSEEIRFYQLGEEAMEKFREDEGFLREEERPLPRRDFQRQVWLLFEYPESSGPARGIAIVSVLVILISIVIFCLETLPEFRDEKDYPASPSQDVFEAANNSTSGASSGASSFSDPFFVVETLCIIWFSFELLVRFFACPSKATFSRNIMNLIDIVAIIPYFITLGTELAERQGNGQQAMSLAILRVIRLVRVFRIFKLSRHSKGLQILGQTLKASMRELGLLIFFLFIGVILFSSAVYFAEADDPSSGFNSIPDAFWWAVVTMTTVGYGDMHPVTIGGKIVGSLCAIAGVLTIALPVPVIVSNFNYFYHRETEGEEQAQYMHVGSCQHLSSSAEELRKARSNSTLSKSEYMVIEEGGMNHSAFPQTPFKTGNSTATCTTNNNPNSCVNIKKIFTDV
Another data set has as its target Kv1.3 (Mus musculus) (UniProt P16390). Briefly: whole-cell patch clamp. (The patch-clamp technique gives a direct electrical read-out from membranes.)
Data set [3] addresses Kv1.3 (Homo sapiens) (UniProt P22001). Briefly: Rb+ efflux.
The target is the same in data set [4]. The experiment in a line: radioligand analysis.

agitoxin 2, sequence (P46111 whole entry): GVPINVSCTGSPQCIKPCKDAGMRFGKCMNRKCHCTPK
Kv1.3 (Mus musculus), sequence (P16390 whole entry): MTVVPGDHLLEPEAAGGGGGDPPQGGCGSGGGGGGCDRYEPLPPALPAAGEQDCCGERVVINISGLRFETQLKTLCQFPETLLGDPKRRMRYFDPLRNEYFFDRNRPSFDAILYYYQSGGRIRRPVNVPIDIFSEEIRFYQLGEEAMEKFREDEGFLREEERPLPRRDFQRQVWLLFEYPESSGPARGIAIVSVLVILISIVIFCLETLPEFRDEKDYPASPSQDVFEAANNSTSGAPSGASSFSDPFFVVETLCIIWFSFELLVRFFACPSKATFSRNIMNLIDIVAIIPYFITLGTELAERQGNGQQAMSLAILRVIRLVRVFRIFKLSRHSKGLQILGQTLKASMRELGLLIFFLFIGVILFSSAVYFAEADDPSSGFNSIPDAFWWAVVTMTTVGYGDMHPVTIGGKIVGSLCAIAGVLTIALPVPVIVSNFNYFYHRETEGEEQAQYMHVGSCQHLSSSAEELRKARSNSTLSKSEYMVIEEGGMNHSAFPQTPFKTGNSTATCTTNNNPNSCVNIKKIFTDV
Kv1.3 (Homo sapiens), sequence (P22001 whole entry): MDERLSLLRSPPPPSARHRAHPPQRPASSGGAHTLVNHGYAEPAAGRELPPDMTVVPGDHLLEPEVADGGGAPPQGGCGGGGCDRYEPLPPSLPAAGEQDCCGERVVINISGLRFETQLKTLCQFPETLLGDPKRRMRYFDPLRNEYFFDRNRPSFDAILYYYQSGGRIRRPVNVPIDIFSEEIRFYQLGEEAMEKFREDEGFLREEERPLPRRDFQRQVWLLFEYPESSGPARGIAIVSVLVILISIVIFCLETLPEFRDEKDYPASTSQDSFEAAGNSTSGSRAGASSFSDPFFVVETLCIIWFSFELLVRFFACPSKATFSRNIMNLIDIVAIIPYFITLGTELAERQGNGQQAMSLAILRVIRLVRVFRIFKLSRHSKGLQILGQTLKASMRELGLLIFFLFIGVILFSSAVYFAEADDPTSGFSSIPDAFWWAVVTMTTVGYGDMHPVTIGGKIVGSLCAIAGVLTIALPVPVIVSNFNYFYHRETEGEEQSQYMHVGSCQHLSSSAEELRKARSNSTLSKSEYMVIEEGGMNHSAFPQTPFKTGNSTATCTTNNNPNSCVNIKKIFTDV
charybdotoxin, sequence (P13487 23-59): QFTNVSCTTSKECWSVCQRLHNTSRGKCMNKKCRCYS
kaliotoxin 1, sequence (P24662 whole entry): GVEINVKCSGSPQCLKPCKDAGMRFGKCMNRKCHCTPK
hongotoxin 1, sequence (P59847 whole entry): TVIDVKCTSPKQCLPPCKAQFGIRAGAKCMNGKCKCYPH

Take agitoxin 2 (from UniProt P46111): the pKd in the data set with Kv1.3 (Homo sapiens) [1] is 10.30; in data set [2], 11.40; with Kv1.3 (Mus musculus) it was 9.70.
Regarding charybdotoxin (from UniProt P13487), the pKd is 9.05 in the data set with Kv1.3 (Homo sapiens) [1] and 8.52 with Kv1.3 (Mus musculus).
Consider hongotoxin 1 (from UniProt P59847), for which the pKd with Kv1.3 (Homo sapiens) [3] was 10.07; with Kv1.3 (Homo sapiens) [4] it was 12.62.
As for kaliotoxin 1 (from UniProt P24662), the pKd with Kv1.3 (Homo sapiens) [1] was 11.00; in the data set with Kv1.3 (Mus musculus), 9.19.

A word on the pKd: it is the negative decadic logarithm of the Kd, by convention in mol/L.
